Assay [1] deals with T1, CD16b-NA1 ECD (human).
T1 chain: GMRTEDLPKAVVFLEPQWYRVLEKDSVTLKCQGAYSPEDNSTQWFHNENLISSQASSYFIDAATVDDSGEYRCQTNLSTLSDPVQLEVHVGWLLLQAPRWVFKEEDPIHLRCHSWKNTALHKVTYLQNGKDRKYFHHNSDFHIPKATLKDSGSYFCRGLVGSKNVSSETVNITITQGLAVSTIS
Description: ELISA.

The target in assay [2] is CD16a-V ECD (human). Description: ELISA. In general terms: In an ELISA, binding on a coated surface is turned into a signal by an enzyme label.
Assay [3] addresses CD16a-F ECD (human). Description: ELISA.
Assay [4] deals with CD16a-F ECD-Fc (human). Description: ELISA.
Assay [5] addresses T2, CD16b-NA2 ECD (human).
T2 chain: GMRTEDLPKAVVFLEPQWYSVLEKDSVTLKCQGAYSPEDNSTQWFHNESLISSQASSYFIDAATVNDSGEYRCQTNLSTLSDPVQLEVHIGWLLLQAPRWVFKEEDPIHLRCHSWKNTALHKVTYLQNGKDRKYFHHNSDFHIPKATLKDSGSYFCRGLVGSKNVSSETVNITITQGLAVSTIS
Description: ELISA.

Assay [6] has as its target CD16a-F ECD (human). Briefly: ELISA, + 10 mg/ml hIgG.
For assay [7], the target named is CD16a-V ECD (human). Briefly: ELISA, + 10 mg/ml hIgG.
The target in assay [8] is CD16a-F D82N (human). Briefly: FACS. For orientation: In flow cytometry, cells or beads pass a laser one at a time.
In assay [9] the target is T3, CD16b-NA2 ECD deglycosylated (human).
T3 chain: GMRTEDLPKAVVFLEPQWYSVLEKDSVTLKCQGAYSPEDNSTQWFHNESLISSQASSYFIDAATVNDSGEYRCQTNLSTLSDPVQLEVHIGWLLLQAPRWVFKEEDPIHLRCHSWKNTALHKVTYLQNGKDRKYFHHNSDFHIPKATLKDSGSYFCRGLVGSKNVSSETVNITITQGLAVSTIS
Description: ELISA.

Assay [10] concerns the target CD16a-F ECD (human). Description: ELISA. The source holds these as a separate data set.
The target of assay [11] is T2, CD16b-NA2 ECD. Briefly: ELISA.
In assay [12] the target is CD16a-V ECD (human). Description: ELISA. The source holds these as a separate data set.
Assay [13] concerns the target T4, CD16b-NA1 ECD deglycosylated (human).
T4 chain: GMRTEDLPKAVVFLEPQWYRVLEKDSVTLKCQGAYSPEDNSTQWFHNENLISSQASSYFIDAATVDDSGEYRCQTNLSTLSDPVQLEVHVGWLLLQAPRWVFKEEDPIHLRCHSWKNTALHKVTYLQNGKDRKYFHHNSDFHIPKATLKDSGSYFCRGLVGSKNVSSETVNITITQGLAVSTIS
Briefly: ELISA.

Assay [14] has as its target CD16a-V ECD deglycosylated (human). Briefly: ELISA.
For assay [15], the target named is T1, CD16b-NA1 ECD. Description: ELISA.
Assay [16] deals with CD16a-F ECD deglycosylated (human). Description: ELISA.
Assay [17] addresses CD16a-V ECD (human). Briefly: ELISA. This is another data set of the same source.
In assay [18] the target is T2, CD16b-NA2 ECD. Description: ELISA.
The target of assay [19] is CD16a-F ECD (human). Briefly: ELISA. This is another data set of the same source.
Assay [20] has as its target CD16a-F ECD (human). Briefly: BLI, 30C. For orientation: In BLI a coated tip is dipped into the sample, and binding shifts an interference pattern.
In assay [21] the target is T5, Cyno CD16a ECD (cynomolgus).
T5 chain: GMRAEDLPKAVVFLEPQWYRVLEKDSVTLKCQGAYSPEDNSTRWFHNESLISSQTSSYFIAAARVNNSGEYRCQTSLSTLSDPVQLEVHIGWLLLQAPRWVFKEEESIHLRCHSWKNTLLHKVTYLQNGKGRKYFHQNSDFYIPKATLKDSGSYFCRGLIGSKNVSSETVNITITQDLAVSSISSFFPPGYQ
Description: BLI, 30C.

The target in assay [22] is CD16a-V ECD (human). Briefly: BLI, 30C.
Assay [23] deals with T2, CD16b-NA2 ECD. Description: BLI, 30C.
The target in assay [24] is T1, CD16b-NA1 ECD. Description: BLI, 30C.
For assay [25], the target named is T6, Mouse FcgRIV (mouse, UniProt A0A0B4J1G0).
T6 chain: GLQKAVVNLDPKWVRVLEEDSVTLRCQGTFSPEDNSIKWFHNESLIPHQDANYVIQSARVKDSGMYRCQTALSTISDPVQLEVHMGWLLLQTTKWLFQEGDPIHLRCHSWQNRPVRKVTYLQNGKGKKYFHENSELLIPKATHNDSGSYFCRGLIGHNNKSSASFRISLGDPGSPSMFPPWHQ
Description: BLI, 30C.

Assay [26] addresses T7, CD16b on neutrophils (human, UniProt O75015).
T7 chain: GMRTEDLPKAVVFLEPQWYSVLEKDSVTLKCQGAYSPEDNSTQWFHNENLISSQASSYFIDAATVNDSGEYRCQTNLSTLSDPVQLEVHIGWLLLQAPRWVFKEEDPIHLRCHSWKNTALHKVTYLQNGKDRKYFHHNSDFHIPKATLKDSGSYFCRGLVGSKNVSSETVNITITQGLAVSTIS
Description: FACS, neutrophils.

Where two headings read alike, the source gives them in different places. Where only a bound is given, the exact number is not on record here.

Sequence of CD16a-F D82N (human) (chain, as listed by the source D82N): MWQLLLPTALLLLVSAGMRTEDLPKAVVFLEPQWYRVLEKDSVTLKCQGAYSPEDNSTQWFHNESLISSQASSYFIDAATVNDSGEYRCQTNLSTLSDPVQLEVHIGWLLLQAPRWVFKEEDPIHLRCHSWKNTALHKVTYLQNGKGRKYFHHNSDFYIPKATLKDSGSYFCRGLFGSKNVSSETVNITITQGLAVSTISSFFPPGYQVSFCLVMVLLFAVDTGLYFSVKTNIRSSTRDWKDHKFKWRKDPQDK

B1: #3A2 IgG1 (antibody)
chain 1: QLQLQESGPGLVKPSETLSLTCTVSGGSIGRGDYYWGWIRQPPGKGLEWIGTIDYSGRTYYNPSLKSRVTISVDTSKNQFSLKLSSVTAADTAVYYCARAFPGEYFGVFDHWGQGTLVTVSS
chain 2: EIVLTQSPGTLSLSPGERATLSCRASQSVSSSYLAWYQQKPGQAPRLLIYDATSRATGIPDRFSGSGSGTDFTLTISRLEPEDFAVYYCQQYDSSSLITFGQGTKVEIK
As usually defined, the Kd is the equilibrium constant for the complex coming apart. In the case of B1, the Kd was > 1000 nM in [1]; 0.051 nM in [2]; 0.048 nM in assay [3]; 0.11 nM in [4]; 546 nM in [5]; 0.74 nM in assay [6]. In assay [7], the Kd stood at 0.53 nM.

B2: #6A2 IgG1 (antibody)
chain 1: QLQLQESGPGLVKPSETLSLTCTVSGGSIGRGDYYWGWIRQPPGKGLEWIGTIDYSGRTYYNPSLKSRVTISVDTSKNQFSLKLSSVTAADTAVYYCARAFPGEYFGVFDHWGQGTLVTVSS
chain 2: not shown
Turning to B2, the Kd in assay [1] is 1300 nM; in assay [2], 0.16 nM; in [3], 0.14 nM; in assay [4], 0.13 nM; in assay [5], 298 nM; in assay [6] it was 0.67 nM. For the same molecule, in [7], the Kd is 0.61 nM.

B3: #55 IgG1 (antibody)
chain 1: EVQLLESGGGLVQPGGSLRLSCAASGFTFSNYAMSWVRQAPGKGLEWVSAISGGGSYTYYADSVKGRFTISRDNSKNTLYLQMNSLRAEDTAVYYCARTYLRRWYYFDYWGQGTLVTVSS
chain 2: DIQMTQSPSSLSASVGDRVTITCRASQTITSYLNWYQQKPGKAPKLLIYAASSLQSGVPSRFSGSGSGTDFTLTISSLQPEDFATYYCQQSYTSPVTFGQGTKVEIK
On to B3, for which the binding result in [8], in assay [21], in [24], in [25] and in [26] was “no binding” throughout. Moreover, the Kd in [9] was 1 nM; in [10], 0.28 nM; in assay [11], ~200 nM; in [12], 0.85 nM; in assay [13] it was 11.2 nM; in assay [14] it was 0.53 nM. Besides, the equilibrium dissociation constant (Kd) in assay [15] came out at 73 nM; in assay [16], 1 nM; in [17], 0.4 nM; in [18], 239 nM; in assay [19], 0.98 nM; in assay [4] it was 0.1 nM. The Kd in assay [20] was 18 nM; in assay [22] it was 6.6 nM; in [23], 214 nM.

The record behind these values is US20260308258 (published 2026).
